Results: paper doi:10.1101/2022.06.09.495492

Target: α-actin, endogenous (T. vaginalis) (T. vaginalis (endogenous in TH17 trophozoites))
Assay: co-sedimentation

TvFACPα (F-actin capping protein subunit α homolog), endogenous (natural protein)
percent co-sedimented with F-actin (F-actin fraction): 25%
